The results in this text go back to patent US20080213284A1.

Assay [1] concerns the target receptor on VERO E6 cells (not identified in the filing). The experiment in a line: flow cytometry on VERO E6 cells, FITC anti-human IgG Fc. On the technique in general: A flow cytometer gives signals particle by particle.
The target is the same in assay [2].
In assay [3] the target is receptors in NIH 3T3 cells (not identified in the filing). The experiment in a line: flow cytometry on NIH 3T3 cells, FITC anti-human IgG Fc.

In assay [1], “S1-Fc fusion protein (from UniProt P59594 14-333)” yielded a concentration at which it bound of 1 µg/mL.

Turning to “S2-Fc fusion protein (from UniProt P59594 334-666)”, the avidity in assay [2] is 1 µM. In addition, the concentration at which it bound was determined as 1 µg/mL in assay [3] and 0.1 µg/mL in assay [1].

As to “S3-Fc fusion protein (from UniProt P59594 667-999)”, in assay [3], the concentration at which it bound worked out at 0.1 µg/mL.
